Laboratory results reported in the RNAGym collection of RNA variant scans (doi:10.1073/pnas.2313332121).

B1: TPR t1 (parent)
chain: GACCAAUCUGCCCUCAGAGCUCGAGAACAUCUUCGGAUGCAGAGGAGGCAGGCUUCGGUGGCGCGAUAGCGCCAACGUCCUCAACCUCCAAUGCAUCCCACCACAUGAUGAUGCCUGAAGAGCCUUGGUUUUUUG

Variants of: B1
Experiment: polymerase ribozyme fitness, log enrichment relative to wild type (log ratio); higher = more active; in vitro selection for triplet polymerase activity
How it was run: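 Only genotypes with ≥10 input reads and ≥1 read per output were kept after Illumina sequencing of input and output libraries. These libraries were PCR-built, transcribed mutants of each subunit of a heterodimeric triplet polymerase ribozyme, each put through one triplicate in vitro selection round with frozen incubation at −7 °C, gel excision of extended constructs, streptavidin-bead capture and RT-PCR. Fitness is a logarithmic ratio of genotype enrichment to wild-type enrichment, from inverse-variance-weighted replicate averages, with the logarithm in base 2.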

Row | Variant | polymerase ribozyme fitness (log ratio)
1 | G69A A84U A91G | -6.33
2 | C64A C86U C98U | -7.04
3 | C64U A83C A100C C101G U129G | -3.82
4 | C64U A121C | 1.93
5 | C64U C124U | 0.756
6 | G69A U96C | -3.08
7 | G69A U78A G93A | -4.02
8 | A66C C85U C88A | -1.61
9 | A66G G128C | -3.65
10 | A66U U106C | -1.81
11 | A68U | -7.01
12 | A68G | -2.44
13 | A68C | -6.94
14 | G69C A75G | -2.54
15 | G63U U92A U96A G113C | -3.99
16 | G63U U81C C86A U129C | -5.92
17 | A68G C79G A105G G110U | -8.49
18 | A66U C89U | -1.51
19 | G69A U133A | -3.31
20 | A66U U81A | -1.96
21 | C64U G110U | -0.774

Row | Variant | polymerase ribozyme fitness (log ratio)
22 | C64A U78A G93A | -6.61
23 | G69A A91U | -6.02
24 | C64A C80G A103C U109G A118U | -5.65
25 | G69A U81A C86G | -4.96
26 | U67C G120U | -4.12
27 | U67C C88A | -5.76
28 | G69A C115G | -3.93
29 | C64U A75U G93A | -0.503
30 | C64G G120U | -6.39
31 | A68C C124A | -5.4
32 | G69A A121U | -0.353
33 | C64U C124U U130G | 0.174
34 | A66U U125G | -1.48
35 | U67A A74U C94G C101A G113C | -7.83
36 | C64A G117C | -6.03
37 | C64A G117U | -6.44
38 | C64U C98U G120U | -0.972
39 | A66G U87A C99U A118U | -4.99
40 | G69A U81A C82U A119G G122U U125A U129C | -5.05
41 | G63U U106C | -1.92
42 | A68U A90G C101G G113A G117C | -5.75

Row | Variant | polymerase ribozyme fitness (log ratio)
43 | A68G C88G A105C A111C | -4.63
44 | G65A | -3.57
45 | G65U | -4.27
46 | G65C | -5.62
47 | A68U C115A G120C | -7.66
48 | G69A U131A | -2.38
49 | G69A U131G | -3.12
50 | G65U C72A C88G C124A | -5.79
51 | A66U U78C | -0.769
52 | C64U C98U | -0.89
53 | C64A C124A | -4.7
54 | C64A U112G G122A | -7.31
55 | G69A U130A U133G | -2.25
56 | C64A G69C A75U U87A U96A | -1.55
57 | A66G U106G | -3.66
58 | C64U A74C A90C C101G | -4.26
59 | G63U U96C | -1.31
60 | A66U C80A | -5.71
61 | C64U U96C | -0.0442
62 | C64U G128A | -1.84
63 | A66C G113C G120U | -5.98

Row | Variant | polymerase ribozyme fitness (log ratio)
64 | G65A A119U | -6.05
65 | C64U C88A U96G U109C A121G | -6.55
66 | C64A U96G C123U | -6.2
67 | G65C C123G U133A | -4.9
68 | C64A U112G | -6.64
69 | G69A C72G A95G U125A | -6.14
70 | U67C U131A | -4.05
71 | C64U G120U | 0.23
72 | C64U G120A | 0.482
73 | G65A G117A | -4.47
74 | A68G A90U | -4.47
75 | G63U U134G | -1.64
76 | C64U A75U U116G G122A C124G | 0.737
77 | U67C G110U | -3.86
78 | G69A C104U G127A U129A | -2.62
79 | C64U U133G | -0.439
80 | C64U U133A | -0.0271
81 | A66U A105U | -4.44
82 | G65A C79U | -3.57
83 | C64U A83C | -0.261
